Source: the nanobody polyreactivity screen of Harvey et al. (2022)

Test: yeast display, Sf9 membrane polyspecificity reagent, FACS + sequencing; frameworks hold sequencing errors
In short: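 A synthetic nanobody library was expressed on Saccharomyces cerevisiae BJ5465 by galactose induction for 36–48 hours. The library was stained for 1 hour at 4 °C with 10% biotinylated, detergent-solubilized Sf9 membrane reagent and enriched with streptavidin microbeads before FACS. Low and high (top ~1%) gates were set on anti-HA fluorescence for expression and streptavidin fluorescence for reagent binding, and each polyreactivity label reflects the gate of origin.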

| Sequence | polyreactivity (PSR sort gate) |
| --- | --- |
| QVQLVESGGGLVQAGGSLRLSCAASGRIFGPDAMRWYRQAPRKERELVAAITWRGDRTYYADSVKGRFTISRDIAKNSVYLQINSLKPEDTAVYYCAARGGRSEYDYWGQATQVTVSS | low polyreactivity |
| QVQLVESGGGLVQAGGSLRLSCAASGRIFGPYAMGWYRQAPGKDRELVASISYSGGSTYYADSVKGRFTISRDKAKNTVYLQMNSLKPEDTAVYYCDKAGYWRGYNYWGQGTQVTVSS | low polyreactivity |
| QVQLVESGGGLVQAGGSLRLSCAASGRIFGPYAMGWYRQAPGKERELVATITWRTGSTYYADSVKGRFTISRDNAKNTVYLQMNSLKPEDTAVYYCAAQSRQAYITYGYWGQGTQVTVSS | high polyreactivity |
| QVQLVESGGGLVQAGGSLRLSCAASGRIFGQNAMGWYRQAPGKERELVAVISQSGGRTYYADSVKGRFTISRDNAKNTVYLQMNSLKPEDTAVYYCAKGGYQHYWGQGTQVTVSS | high polyreactivity |
| QVQLVESGGGLVQAGGSLRLSCAASGRIFGQYAMGWYRQAPGKERELVASISRRGGSTNYADSVKGRFTISRDNAKNTVYLQMNSLKPEDSAVYYCAARTWRRQYYRTRYEYWGQGTQVNVSS | high polyreactivity |
| QVQLVESGGGLVQAGGSLRLSCAASGRIFGRNAMGWYRKAPGKERELVAAISWRGGNTYYADSVKGRFTISRDNAKNTVYLQMNSLKPEDTAVYYCNTVQYRNEMGYWGQGTQVTVSS | high polyreactivity |
| QVQLVESGGGLVQAGGSLRLSCAASGRIFGRNAMGWYRQAPGNERELVAAINFGGTSTYYADSVKGRFTISRDNAKNTVYLQMNSLKPEDTAVYYCAARSRQDNFYRSYNSWGQGTQVTVSS | high polyreactivity |
| QVQLVESGGGLVQAGGSLRLSCAASGRIFGRNTMGWYRKAPGKERELVASIRSGGRTYYADSVKGRFTISRDNAKNTVYLEMNSLKPEDTAVYYCAADNRKSSSSGYDYWGQGTQVTVSS | low polyreactivity |
| QVQLVESGGGLVQAGGSLRLSCAASGRIFGRYAMGSYRQAPGKERELVAGINSGSTSYADSVRGRFTISRDNAKNTVYLQMNSLKPEDTAVYYCARGPRYRGGWDTFRGFDYWGQGTQVTVSS | low polyreactivity |
| QVQLVESGGGLVQAGGSLRLSCAASGRIFGRYAMGWYRQAPGKERELVAAISSGTSTNYADSVKGRFTISRDNAKNTVYLQMNSLKPEDTAVYYCAVVLYRHWWYDYWGQGTQVTVSS | high polyreactivity |
| QVQLVESGGGLVQAGGSLRLSCAASGRIFGRYAMGWYRQAPGKERELVAAISSSGGTTYYADSVKGRFTISRDKAKNTVYLQMNSLKPEDTAVYYCAKRGYYYGYDYWGQGTQVTVSS | high polyreactivity |
| QVQLVESGGGLVQAGGSLRLSCAASGRIFGRYAMGWYRQAPGKERELVASITRRGGSTYYADSVKGRFTISRDNAKNTVYLQMNSLKPEDTAVYYCAAGGFSWEGDSWGQGTEVTVSS | high polyreactivity |
| QVQLVESGGGLVQAGGSLRLSCAASGRIFGRYAMGWYRQAPGKERELVAVISARGARTYYADSVKGRFTISRDNAKNTVYLQMNSLKPEDTAVYYCAVDQYATDDYWGQGTQVTVSS | high polyreactivity |
| QVQLVESGGGLVQAGGSLRLSCAASGRIFGRYAMGWYRQEPGKERELVASISWSGDSTYYADSVKGRFTISRDNAKNTVYLQMNSLKPEDTAVYYCNADPFIRTWYNYGYWGQGTQVTVSS | low polyreactivity |
| QVQLVESGGGLVQAGGSLRLSCAASGRIFGRYVMGWYRQAPGKERELVAAITSRDDSTYYADSVKGRFTISRDNAKNTVYLQMTSLKPEDTAVYYCAATWGRGYDYWGQGTQVTVSS | high polyreactivity |
| QVQLVESGGGLVQAGGSLRLSCAASGRIFGSNAMGWYRQAPGKERELVATITKNGTSTYYADSVKGRFTISRDNAKNTVYLQMNSLKPEDTAVYYCARAPLRYSSRYEYWGQGTQVTVSS | low polyreactivity |
| QVQLVESGGGLVQAGGSLRLSCAASGRIFGSYAMGWYRQAHGKERELVAAIRWSGGSTYYADSVKGRFTISRDNAKNTVYLQMNSLKPEDTAVYYCAKTRTGYCFSYGYWGQGTQVTVSS | high polyreactivity |
